Measured values published in paper PMC5020537, “A lack of peptide binding and decreased thermostability suggests that the CASKIN2 scaffolding protein SH3 domain may be vestigial” (BMC Structural Biology, 2016).
“And” between values parts separate entries of the source, which are not always exact repeats. Equal entries are not always repeated.

What was measured:
[1] = target: T1, CASKIN2 SH3 domain SH3-6x mutant (K290Y, H296E, A300E, R319W, Y336L, I341F) (human, UniProt Q8WXE0 284-348, K290Y | H296E | A300E | R319W | Y336L | I341F); experiment: other fluorescence titration; peptide titrated into 1 μM SH3 domain; 10 mM Tris-HCl, pH 7.5, 150 mM NaCl, 0.05 % sodium azide; intrinsic tryptophan fluorescence, excitation 280 nm, emission 340 nm; fitted to a 1:1 protein to peptide complex; details: both partners purified
T1 construct: Made by Quikchange from the wild type construct; PDB 2KE9 is the wild type parent; also called 6x CASKIN-SH3 domain mutant

[2] = target: T2, human CASKIN2 SH3 domain (aa. 284-348), wild type (human, UniProt Q8WXE0 284-348); experiment: as above; details: both partners purified
T2 construct: CASKIN2, human, SH3 domain, residues 284-348, UniProt Q8WXE0; Cloned into BamHI/XhoI of pGEX4T2; Isotopically labelled (15N and/or 13C) for NMR; also called wild type CASKIN2 SH3 domain; WT
T2 sequence (Q8WXE0 284-348): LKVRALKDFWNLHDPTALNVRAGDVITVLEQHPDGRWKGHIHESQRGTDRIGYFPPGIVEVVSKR

T1 sequence (Q8WXE0 284-348 K290Y/H296E/A300E/R319W/Y336L/I341F): as the sequence (Q8WXE0 284-348) above, with K7Y, H13E, A17E, R36W, Y53L, I58F counted along it

- Kd [1]: 0.46 µM and 0.22 µM
- Kd [2]: 39 ± 6 µM
B1: UBPY peptide YTPMVRENKPP (peptide)
peptide: YTPMVRENKPP
notes: peptide derived from the protein UBPY, corresponding to the UBPY ligand in the STAM2 SH3 domain structure PDB 1UJ0; contains an RxxKP motif; also called Class-III UBPY peptide; STAM2 ligand; source: synthetic peptide (Canpeptide, Montreal; > 90 % purity)
